For one molecule, fold increase in affinity over DATC5 results are on record in patent publication US20220033450A1, “VIRALLY EXPRESSED INHIBITORS OF PDZ DOMAINS, SUCH AS PICK1 AND USES THEREOF” (University of Copenhagen, priority 2018, published 2022).

The target in this experiment is Protein Interacting with C Kinase-1 (PICK1), Q9EP80. Briefly: FP competition, PICK1 0.15 µM, tracer PEG4 linked dimeric C5 20 nM.
Chain of Protein Interacting with C Kinase-1 (PICK1), Q9EP80 (Q9EP80 whole entry): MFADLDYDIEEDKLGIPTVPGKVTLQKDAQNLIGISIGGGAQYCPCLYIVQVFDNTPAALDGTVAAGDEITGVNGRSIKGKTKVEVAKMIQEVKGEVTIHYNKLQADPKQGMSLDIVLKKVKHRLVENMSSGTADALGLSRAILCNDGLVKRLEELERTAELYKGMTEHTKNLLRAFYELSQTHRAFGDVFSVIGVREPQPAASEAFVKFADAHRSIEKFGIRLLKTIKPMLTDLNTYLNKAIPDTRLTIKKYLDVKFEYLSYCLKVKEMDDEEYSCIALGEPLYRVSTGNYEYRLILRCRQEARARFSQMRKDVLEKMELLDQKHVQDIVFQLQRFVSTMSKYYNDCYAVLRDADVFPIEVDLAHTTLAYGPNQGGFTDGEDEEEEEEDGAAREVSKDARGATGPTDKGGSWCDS

GEELLEDIRKFNEMRKNMDQLKEKINSVLSIRQGGGGSHWLKV (designed binder, modifications not checked) [SSO10a-GS4-HWLKV] displayed a fold increase in affinity over DATC5 of 16 fold.
